# From patent US20120192294
# System: Aβ1-42 peptide, untreated (non-nitrated)
substance,measurement,value
recombinant insulin degrading enzyme (IDE),degradation of Aβ (immunoblot with 6E10 after 2 h incubation),Analysis after 2 h of incubation showed decreased degradation of Aβ with increasing concentration of Sin-1
